Key:
PXR:RXRa = PXR:RXRa (Homo sapiens, UniProt O75469;P19793 full;full); experiment: no ligand; PBM; 270 nM : 90 nM RXRa; PBS pH 7.4, 2% milk, 0.02% Triton X-100, 1 mM DTT, BSA, 0.4 mg/ml salmon testes DNA; details: tags: His kept;His cleaved; copies: 1;1; label: surface-attached array probe
In short: (§1)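 Regression normalization was applied to scanned fluorescence from custom Agilent 4×180K protein-binding microarrays. Before scanning, arrays were incubated 1 h with ligand-free nuclear receptor dimers, and binding was detected with antibodies against each partner (one per run). Binding z-scores use the random background probes as reference.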

RARb:RXRa = RARb:RXRa (Homo sapiens, UniProt P10826;P19793 full;full); experiment: as above; details: tags: His kept;His cleaved; copies: 1;1; label: surface-attached array probe
Chain of RARb:RXRa (P10826 whole entry, chain 1 of 2): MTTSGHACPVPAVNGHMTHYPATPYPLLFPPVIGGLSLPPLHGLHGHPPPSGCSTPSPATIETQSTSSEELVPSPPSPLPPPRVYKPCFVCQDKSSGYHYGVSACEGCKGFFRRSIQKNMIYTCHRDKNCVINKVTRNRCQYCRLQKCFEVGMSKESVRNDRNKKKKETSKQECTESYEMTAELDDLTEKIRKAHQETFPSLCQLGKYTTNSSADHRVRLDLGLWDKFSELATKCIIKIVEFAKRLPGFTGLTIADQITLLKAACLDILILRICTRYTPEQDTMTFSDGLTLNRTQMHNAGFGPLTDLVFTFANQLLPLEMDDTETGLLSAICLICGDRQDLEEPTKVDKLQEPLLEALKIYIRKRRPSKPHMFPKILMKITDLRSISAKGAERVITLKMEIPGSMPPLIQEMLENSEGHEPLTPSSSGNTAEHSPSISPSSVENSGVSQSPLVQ
Chain of RARb:RXRa (P19793 whole entry, chain 2 of 2): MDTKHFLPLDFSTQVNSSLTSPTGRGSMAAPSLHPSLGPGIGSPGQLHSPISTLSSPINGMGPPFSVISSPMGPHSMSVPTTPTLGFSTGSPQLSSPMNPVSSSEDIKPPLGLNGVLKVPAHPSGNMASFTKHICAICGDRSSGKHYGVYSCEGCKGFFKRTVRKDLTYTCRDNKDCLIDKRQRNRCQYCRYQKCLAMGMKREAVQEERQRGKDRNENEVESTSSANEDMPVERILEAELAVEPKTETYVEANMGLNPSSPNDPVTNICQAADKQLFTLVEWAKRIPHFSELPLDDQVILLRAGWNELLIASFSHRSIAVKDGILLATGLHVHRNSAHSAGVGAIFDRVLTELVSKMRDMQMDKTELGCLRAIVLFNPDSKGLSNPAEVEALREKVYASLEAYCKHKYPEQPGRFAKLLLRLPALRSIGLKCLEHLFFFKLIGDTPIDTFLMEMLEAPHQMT
In short: as §1

LXRa:RXRa = LXRa:RXRa (Homo sapiens, UniProt Q13133;P19793 full;full); experiment: as above; details: tags: His kept;His cleaved; copies: 1;1; label: surface-attached array probe
Chain of LXRa:RXRa (Q13133 whole entry, chain 1 of 2): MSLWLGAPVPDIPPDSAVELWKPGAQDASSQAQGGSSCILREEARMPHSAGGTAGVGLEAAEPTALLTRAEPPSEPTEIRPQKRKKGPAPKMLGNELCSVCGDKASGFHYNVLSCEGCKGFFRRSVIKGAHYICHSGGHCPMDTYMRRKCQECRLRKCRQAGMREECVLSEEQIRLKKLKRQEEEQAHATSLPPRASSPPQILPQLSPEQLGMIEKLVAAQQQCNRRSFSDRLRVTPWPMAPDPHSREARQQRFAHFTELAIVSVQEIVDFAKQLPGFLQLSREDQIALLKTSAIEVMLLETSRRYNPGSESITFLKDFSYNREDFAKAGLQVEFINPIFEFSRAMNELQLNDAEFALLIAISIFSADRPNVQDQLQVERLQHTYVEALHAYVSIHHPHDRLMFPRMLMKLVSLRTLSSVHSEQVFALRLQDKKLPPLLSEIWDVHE
Chain of LXRa:RXRa (P19793 whole entry, chain 2 of 2): as the sequence (P19793 whole entry, chain 2 of 2) above
In short: as §1

PPARa:RXRa = PPARa:RXRa (Homo sapiens, UniProt Q07869;P19793 full;full); experiment: as above; details: tags: GST kept;His cleaved; copies: 1;1; label: surface-attached array probe
Chain of PPARa:RXRa (Q07869 whole entry, chain 1 of 2): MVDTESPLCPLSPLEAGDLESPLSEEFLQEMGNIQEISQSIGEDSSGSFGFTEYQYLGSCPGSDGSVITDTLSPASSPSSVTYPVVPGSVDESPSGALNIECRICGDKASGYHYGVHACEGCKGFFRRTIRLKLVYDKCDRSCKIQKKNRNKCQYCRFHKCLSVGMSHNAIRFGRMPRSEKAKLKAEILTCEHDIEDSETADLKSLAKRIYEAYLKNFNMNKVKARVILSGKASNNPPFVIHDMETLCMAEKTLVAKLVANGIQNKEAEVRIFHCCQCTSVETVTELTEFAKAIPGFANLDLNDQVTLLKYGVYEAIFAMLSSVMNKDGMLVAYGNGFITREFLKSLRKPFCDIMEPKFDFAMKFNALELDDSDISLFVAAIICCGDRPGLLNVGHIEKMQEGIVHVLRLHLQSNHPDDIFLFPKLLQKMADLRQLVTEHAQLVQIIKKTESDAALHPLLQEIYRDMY
Chain of PPARa:RXRa (P19793 whole entry, chain 2 of 2): as the sequence (P19793 whole entry, chain 2 of 2) above
In short: as §1

LXRb:RXRa = LXRb:RXRa (Homo sapiens, UniProt P55055;P19793 full;full); experiment: as above; details: tags: His kept;His cleaved; copies: 1;1; label: surface-attached array probe
Chain of LXRb:RXRa (P55055 whole entry, chain 1 of 2): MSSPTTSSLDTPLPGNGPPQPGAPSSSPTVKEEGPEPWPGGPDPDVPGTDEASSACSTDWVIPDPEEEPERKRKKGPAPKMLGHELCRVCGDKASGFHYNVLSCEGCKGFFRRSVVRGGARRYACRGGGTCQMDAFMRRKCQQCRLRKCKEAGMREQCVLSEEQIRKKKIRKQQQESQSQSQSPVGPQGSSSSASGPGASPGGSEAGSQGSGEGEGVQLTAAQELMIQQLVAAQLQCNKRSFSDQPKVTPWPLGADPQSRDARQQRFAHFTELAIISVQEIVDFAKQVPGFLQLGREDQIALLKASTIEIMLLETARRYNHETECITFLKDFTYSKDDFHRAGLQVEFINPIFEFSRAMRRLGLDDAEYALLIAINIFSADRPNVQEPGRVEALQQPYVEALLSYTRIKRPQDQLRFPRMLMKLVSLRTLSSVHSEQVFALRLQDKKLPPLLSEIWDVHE
Chain of LXRb:RXRa (P19793 whole entry, chain 2 of 2): as the sequence (P19793 whole entry, chain 2 of 2) above
In short: as §1

FXR:RXRa = FXR:RXRa (Homo sapiens, UniProt Q96RI1;P19793 full;full); experiment: as above; details: tags: His kept;His cleaved; copies: 1;1; label: surface-attached array probe
Chain of FXR:RXRa (Q96RI1 whole entry, chain 1 of 2): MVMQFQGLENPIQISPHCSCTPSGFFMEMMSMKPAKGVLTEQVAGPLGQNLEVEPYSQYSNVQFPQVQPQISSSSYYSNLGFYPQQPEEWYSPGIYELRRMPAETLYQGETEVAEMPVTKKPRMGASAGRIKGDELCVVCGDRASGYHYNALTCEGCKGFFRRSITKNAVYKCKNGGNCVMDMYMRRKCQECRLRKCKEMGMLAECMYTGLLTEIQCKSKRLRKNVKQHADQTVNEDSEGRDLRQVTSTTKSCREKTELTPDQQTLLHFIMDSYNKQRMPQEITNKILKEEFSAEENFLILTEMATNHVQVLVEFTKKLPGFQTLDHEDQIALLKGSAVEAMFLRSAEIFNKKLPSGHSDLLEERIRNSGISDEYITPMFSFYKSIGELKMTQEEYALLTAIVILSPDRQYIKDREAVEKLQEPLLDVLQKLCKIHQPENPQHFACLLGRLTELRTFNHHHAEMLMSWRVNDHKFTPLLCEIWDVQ
Chain of FXR:RXRa (P19793 whole entry, chain 2 of 2): as the sequence (P19793 whole entry, chain 2 of 2) above
In short: as §1

RARg:RXRa = RARg:RXRa (Homo sapiens, UniProt P13631;P19793 full;full); experiment: as above; details: tags: His kept;His cleaved; copies: 1;1; label: surface-attached array probe
Chain of RARg:RXRa (P13631 whole entry, chain 1 of 2): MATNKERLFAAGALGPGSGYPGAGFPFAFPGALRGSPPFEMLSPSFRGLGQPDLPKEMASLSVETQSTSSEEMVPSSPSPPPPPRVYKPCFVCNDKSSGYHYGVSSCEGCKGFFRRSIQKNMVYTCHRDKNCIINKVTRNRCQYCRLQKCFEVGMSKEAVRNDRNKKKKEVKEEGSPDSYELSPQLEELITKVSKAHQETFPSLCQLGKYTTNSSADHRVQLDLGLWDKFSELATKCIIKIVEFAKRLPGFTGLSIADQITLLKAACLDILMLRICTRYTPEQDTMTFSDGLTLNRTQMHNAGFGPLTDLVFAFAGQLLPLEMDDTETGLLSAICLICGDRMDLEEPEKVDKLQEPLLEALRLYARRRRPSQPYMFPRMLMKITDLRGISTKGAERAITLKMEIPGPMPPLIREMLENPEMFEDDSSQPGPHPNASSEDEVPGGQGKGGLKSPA
Chain of RARg:RXRa (P19793 whole entry, chain 2 of 2): as the sequence (P19793 whole entry, chain 2 of 2) above
In short: as §1

RXRa = RXRa (Homo sapiens, UniProt P19793); experiment: no ligand; PBM; 180 nM; PBS pH 7.4, 2% milk, 0.02% Triton X-100, 1 mM DTT, BSA, 0.4 mg/ml salmon testes DNA; details: tags: His cleaved; chain copies: 2; label: surface-attached array probe
Chain of RXRa (P19793 whole entry): as the sequence (P19793 whole entry, chain 2 of 2) above
VDR:RXRa = VDR:RXRa (Homo sapiens, UniProt P11473;P19793 full;full); experiment: no ligand; PBM; 270 nM : 90 nM RXRa; PBS pH 7.4, 2% milk, 0.02% Triton X-100, 1 mM DTT, BSA, 0.4 mg/ml salmon testes DNA; details: tags: His kept;His cleaved; copies: 1;1; label: surface-attached array probe
Chain of VDR:RXRa (P11473 whole entry, chain 1 of 2): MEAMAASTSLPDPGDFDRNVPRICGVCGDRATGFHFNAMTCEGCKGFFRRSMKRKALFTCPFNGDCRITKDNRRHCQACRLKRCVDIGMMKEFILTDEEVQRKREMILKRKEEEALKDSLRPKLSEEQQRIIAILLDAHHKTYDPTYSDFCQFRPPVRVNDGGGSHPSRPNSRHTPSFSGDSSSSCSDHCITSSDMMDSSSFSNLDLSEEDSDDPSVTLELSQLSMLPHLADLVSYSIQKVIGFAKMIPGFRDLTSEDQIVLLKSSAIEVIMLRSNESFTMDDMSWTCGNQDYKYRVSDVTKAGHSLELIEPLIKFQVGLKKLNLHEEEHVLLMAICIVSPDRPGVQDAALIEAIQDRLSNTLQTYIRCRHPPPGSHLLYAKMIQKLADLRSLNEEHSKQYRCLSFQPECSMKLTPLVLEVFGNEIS
Chain of VDR:RXRa (P19793 whole entry, chain 2 of 2): as the sequence (P19793 whole entry, chain 2 of 2) above
In short: as §1

Chain of PXR:RXRa (O75469 whole entry, chain 1 of 2): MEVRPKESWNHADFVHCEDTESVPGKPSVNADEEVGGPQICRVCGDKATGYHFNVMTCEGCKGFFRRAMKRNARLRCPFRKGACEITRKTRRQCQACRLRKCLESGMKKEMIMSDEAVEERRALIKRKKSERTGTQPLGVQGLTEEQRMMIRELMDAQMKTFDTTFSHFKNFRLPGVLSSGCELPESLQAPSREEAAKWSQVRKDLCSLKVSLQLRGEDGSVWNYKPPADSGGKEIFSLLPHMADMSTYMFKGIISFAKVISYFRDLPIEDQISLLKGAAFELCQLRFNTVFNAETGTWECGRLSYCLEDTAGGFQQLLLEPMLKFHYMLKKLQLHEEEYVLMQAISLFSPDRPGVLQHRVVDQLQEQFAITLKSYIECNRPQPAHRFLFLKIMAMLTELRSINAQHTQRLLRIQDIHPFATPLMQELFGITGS
Chain of PXR:RXRa (P19793 whole entry, chain 2 of 2): as the sequence (P19793 whole entry, chain 2 of 2) above

Row | Binder | binding signal (PXR:RXRa) | binding signal (RARb:RXRa) | binding signal (LXRa:RXRa) | binding signal (PPARa:RXRa) | binding signal (LXRb:RXRa) | binding signal (FXR:RXRa) | binding signal (RARg:RXRa) | binding signal (RXRa) | binding signal (VDR:RXRa)
1 | NRC3_wobSeed113_DR4_T8G_o1 (dsDNA) DNA 1: GCATATGGAGGTTAGCTGGGGTCATTCAGACTAGGCGCGATTGACAGCGTAGAATGAAGG DNA 2: CCTTCATTCTACGCTGTCAATCGCGCCTAGTCTGAATGACCCCAGCTAACCTCCATATGC | 6.8 PBM z-score against 500 random probes |  |  |  |  |  |  |  | 
2 | NRC3_wobSeed73_DR3_C7A_o1 (dsDNA) DNA 1: GCCAAAATAGGTCACAGAGGTCAAAGTCCGTGCGTAGCGATTGACAGCGTAGAATGAAGG DNA 2: CCTTCATTCTACGCTGTCAATCGCTACGCACGGACTTTGACCTCTGTGACCTATTTTGGC |  | 5.84 PBM z-score against 500 random probes | 7.23 PBM z-score against 500 random probes | 6.98 PBM z-score against 500 random probes | 7.08 PBM z-score against 500 random probes | 8.03 PBM z-score against 500 random probes | 7.78 PBM z-score against 500 random probes |  | 
3 | NRC3_wobSeed37_DR1_C7A_o1 (dsDNA) DNA 1: GCCGTCAAAGGTCAAAGGTCAGTGAAGAGATGACGGGCGATTGACAGCGTAGAATGAAGG DNA 2: CCTTCATTCTACGCTGTCAATCGCCCGTCATCTCTTCACTGACCTTTGACCTTTGACGGC |  | 6.32 PBM z-score against 500 random probes | 7.91 PBM z-score against 500 random probes | 7.54 PBM z-score against 500 random probes | 7.7 PBM z-score against 500 random probes | 9.14 PBM z-score against 500 random probes | 9.63 PBM z-score against 500 random probes | 11 PBM z-score against 500 random probes | 7.1 PBM z-score against 500 random probes
4 | NRC3_wobSeed37_DR1_C7T_o1 (dsDNA) DNA 1: GCCGTCTAAGGTCAAAGGTCAGTGAAGAGATGACGGGCGATTGACAGCGTAGAATGAAGG DNA 2: CCTTCATTCTACGCTGTCAATCGCCCGTCATCTCTTCACTGACCTTTGACCTTAGACGGC | 7.41 PBM z-score against 500 random probes |  |  |  |  |  |  |  | 
5 | NRC3_random_hg19_29_o1 (dsDNA) DNA 1: GCGGTTGAATGCCCAGATAGTACACACACCAAGCTTGCGATTGACAGCGTAGAATGAAGG DNA 2: CCTTCATTCTACGCTGTCAATCGCAAGCTTGGTGTGTGTACTATCTGGGCATTCAACCGC |  | -0.14 PBM z-score against 500 random probes | -0.08 PBM z-score against 500 random probes |  | 0.12 PBM z-score against 500 random probes |  |  |  | 
6 | NRC3_wobSeed82_DR3_G14A_o1 (dsDNA) DNA 1: GCATCGAAAGGTCAACGAGGTGAGTATACACCGTTTGCGATTGACAGCGTAGAATGAAGG DNA 2: CCTTCATTCTACGCTGTCAATCGCAAACGGTGTATACTCACCTCGTTGACCTTTCGATGC |  | 6.1 PBM z-score against 500 random probes | 7.22 PBM z-score against 500 random probes | 6.87 PBM z-score against 500 random probes | 6.3 PBM z-score against 500 random probes | 8.61 PBM z-score against 500 random probes | 7.92 PBM z-score against 500 random probes | 8.25 PBM z-score against 500 random probes | 7.33 PBM z-score against 500 random probes
7 | NRC3_wobSeed10_DR0_G14A_o1 (dsDNA) DNA 1: GCATCGAAAGGTCAAGGTGAGTATAGAGAAAGGGAAGCGATTGACAGCGTAGAATGAAGG DNA 2: CCTTCATTCTACGCTGTCAATCGCTTCCCTTTCTCTATACTCACCTTGACCTTTCGATGC |  | 6.24 PBM z-score against 500 random probes | 7.08 PBM z-score against 500 random probes | 7.41 PBM z-score against 500 random probes | 5.9 PBM z-score against 500 random probes | 8.27 PBM z-score against 500 random probes | 7.61 PBM z-score against 500 random probes | 8.13 PBM z-score against 500 random probes | 
8 | NRC3_wobSeed130_DR5_G14A_o1 (dsDNA) DNA 1: GCCTCGAAAGGTCATGCTCAGGTGAGTATACCAAACGCGATTGACAGCGTAGAATGAAGG DNA 2: CCTTCATTCTACGCTGTCAATCGCGTTTGGTATACTCACCTGAGCATGACCTTTCGAGGC |  | 5.96 PBM z-score against 500 random probes | 7.19 PBM z-score against 500 random probes | 6.66 PBM z-score against 500 random probes | 5.85 PBM z-score against 500 random probes | 8.36 PBM z-score against 500 random probes | 7.89 PBM z-score against 500 random probes | 8.8 PBM z-score against 500 random probes | 
9 | NRC3_random_hg19_378_o1 (dsDNA) DNA 1: GCATCATCTTGCGTATGTTGATTGATGTCTCATGTGGCGATTGACAGCGTAGAATGAAGG DNA 2: CCTTCATTCTACGCTGTCAATCGCCACATGAGACATCAATCAACATACGCAAGATGATGC |  |  | -0.34 PBM z-score against 500 random probes |  | -0.13 PBM z-score against 500 random probes |  | 0.26 PBM z-score against 500 random probes |  | 
10 | NRC3_wobSeed25_DR1_C7A_o1 (dsDNA) DNA 1: GCCAAAATAGGTCAAAGGTCAAAGTCGAGCCAACCAGCGATTGACAGCGTAGAATGAAGG DNA 2: CCTTCATTCTACGCTGTCAATCGCTGGTTGGCTCGACTTTGACCTTTGACCTATTTTGGC |  | 6.18 PBM z-score against 500 random probes | 7.77 PBM z-score against 500 random probes |  | 7.8 PBM z-score against 500 random probes | 8.93 PBM z-score against 500 random probes | 9.5 PBM z-score against 500 random probes | 10.9 PBM z-score against 500 random probes | 7.13 PBM z-score against 500 random probes
11 | NRC3_wobSeed25_DR1_A6G_o1 (dsDNA) DNA 1: GCCAAGCTAGGTCAAAGGTCAAAGTCGAGCCAACCAGCGATTGACAGCGTAGAATGAAGG DNA 2: CCTTCATTCTACGCTGTCAATCGCTGGTTGGCTCGACTTTGACCTTTGACCTAGCTTGGC | 7.42 PBM z-score against 500 random probes |  |  |  |  |  |  |  | 
12 | NRC3_random_hg19_428_o1 (dsDNA) DNA 1: GCGAGATTGGAAGGCTTCCAGATGCAAGGCTGTGGCGCGATTGACAGCGTAGAATGAAGG DNA 2: CCTTCATTCTACGCTGTCAATCGCGCCACAGCCTTGCATCTGGAAGCCTTCCAATCTCGC |  |  | -1.14 PBM z-score against 500 random probes |  | -1.31 PBM z-score against 500 random probes |  |  |  | -1.12 PBM z-score against 500 random probes
13 | NRC3_wobSeed121_DR5_C7A_o1 (dsDNA) DNA 1: GCCAAAATAGGTCACCGGAAGGTCAAAGTCCGCATGGCGATTGACAGCGTAGAATGAAGG DNA 2: CCTTCATTCTACGCTGTCAATCGCCATGCGGACTTTGACCTTCCGGTGACCTATTTTGGC |  | 5.81 PBM z-score against 500 random probes | 7 PBM z-score against 500 random probes |  | 6.15 PBM z-score against 500 random probes |  | 9.04 PBM z-score against 500 random probes | 7.97 PBM z-score against 500 random probes | 6.58 PBM z-score against 500 random probes
14 | NRC3_wobSeed133_DR5_C7A_o1 (dsDNA) DNA 1: GCCGTCAAAGGTCAATGCTAGGTCAGTGAAAGCATTGCGATTGACAGCGTAGAATGAAGG DNA 2: CCTTCATTCTACGCTGTCAATCGCAATGCTTTCACTGACCTAGCATTGACCTTTGACGGC |  | 6.04 PBM z-score against 500 random probes | 6.75 PBM z-score against 500 random probes | 6.56 PBM z-score against 500 random probes | 6.22 PBM z-score against 500 random probes | 8.38 PBM z-score against 500 random probes | 8.73 PBM z-score against 500 random probes | 8.08 PBM z-score against 500 random probes | 
15 | NRC3_wobSeed21_DR0_T11G_o1 (dsDNA) DNA 1: GCCGTCAAAGGTCAAGGTAACGTAACAGAAAGCAGCGCGATTGACAGCGTAGAATGAAGG DNA 2: CCTTCATTCTACGCTGTCAATCGCGCTGCTTTCTGTTACGTTACCTTGACCTTTGACGGC |  | 6.57 PBM z-score against 500 random probes | 6.81 PBM z-score against 500 random probes | 6.99 PBM z-score against 500 random probes | 6.12 PBM z-score against 500 random probes | 9.02 PBM z-score against 500 random probes | 7.8 PBM z-score against 500 random probes | 8.42 PBM z-score against 500 random probes | 
16 | NRC3_random_hg19_484_o1 (dsDNA) DNA 1: GCCAGCAAACTAGGAATCAAGAAACTGAGTTCTGGCGCGATTGACAGCGTAGAATGAAGG DNA 2: CCTTCATTCTACGCTGTCAATCGCGCCAGAACTCAGTTTCTTGATTCCTAGTTTGCTGGC |  |  | -0.57 PBM z-score against 500 random probes | -0.5 PBM z-score against 500 random probes | -0.51 PBM z-score against 500 random probes |  |  | -0.22 PBM z-score against 500 random probes | 
